{"source": "paper PMC7541481", "about": "“A unique clade of light-driven proton-pumping rhodopsins evolved in the cyanobacterial lineage” (Scientific Reports, 2020)", "molecules": {"B1": {"name": "Cyanorhodopsin N2098R (Calothrix sp. NIES-2098) (protein)", "chain": "MTQFWLWVGFIGMVIGCIYFGMKASAMRRREGMEFPLESFFITLWAAALYLTMILGETVTPINGQTVFWGRYIDWVVTTPLLLMELGVIAGLRPKLIAGVMGADIFMIVTGFIGAVEAPPYNYLWWLISTGSFLAILGSLLTEYSASAKRRNGRINSLFQTLRNILIVLWICYPIVWILGAEGFHVISVGWETLCYSVLDVCAKVGFGFVVVSAGNETLAQASNSDRIMETVHSYMQSEEREQSPYR"}}, "key": {"N2098R": {"target": "T1, N2098R (Calothrix sp., UniProt Z9R0O1FWN2)", "T1 construct": "crystal: E. coli cell-free synthesis; retinal analysis: synthetic codon-optimized gene in pET21a, E. coli, C-terminal His-tag, DDM-solubilized", "T1 sequence (Z9R0O1FWN2 8-254)": "B1 chain", "experiment": "X-ray crystal structure ([…] Å); retinal isomer HPLC", "type": "binding", "settings": "covalent; Schiff base with Lys204; in meso crystals"}, "N4075R": {"target": "T2, N4075R (Tolypothrix sp., UniProt Z9F5K4BE25)", "T2 construct": "E. coli cell-free synthesis for crystallization, in meso", "T2 sequence (Z9F5K4BE25 8-259)": "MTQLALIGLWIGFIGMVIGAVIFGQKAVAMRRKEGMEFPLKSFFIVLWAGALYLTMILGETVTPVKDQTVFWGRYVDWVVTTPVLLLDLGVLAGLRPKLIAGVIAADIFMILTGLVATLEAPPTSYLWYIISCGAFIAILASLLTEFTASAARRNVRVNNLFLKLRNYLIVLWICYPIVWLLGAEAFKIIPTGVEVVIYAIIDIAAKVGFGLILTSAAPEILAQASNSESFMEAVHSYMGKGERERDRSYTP", "experiment": "X-ray crystal structure ([…] Å)", "type": "binding", "settings": "covalent; Schiff base lysine; isomer not stated for this protein"}, "Asp121": {"target": "Asp121 (UniProt position 121, AYRYVDWLLTV)", "settings": "cited from earlier work"}, "Asp85": {"target": "Asp85 (UniProt position 98, WARYADWLFTT)", "settings": "cited from earlier work"}, "Asp97": {"target": "Asp97 (UniProt position 97, VFRYIDWLLTV)", "settings": "cited from earlier work"}, "Asp74 (position 74, …)": {"target": "Asp74 (position 74, …)", "experiment": "UV-vis", "settings": "room temperature (approx. 25°C); 50 mM NaCl; seven-mix buffer (Tris, citric acid, MES, HEPES, MOPS, CHES, CAPS; 10 mM each); dark/unphotolysed state under room light, all-trans retinal bound, detergent-solubilised, folded (reversibility checked)"}}}
{"molecule": "CC1=C(/C=C/C(C)=C/C=C/C(C)=C/C=O)C(C)(C)CCC1", "note": "[all-trans retinal]", "values": [{"measurement": "X-ray crystal structure (2.65 Å); retinal isomer HPLC", "setting": "N2098R", "value": "the isomeric state of retinal was predominantly all-trans"}, {"measurement": "X-ray crystal structure (1.9 Å)", "setting": "N4075R", "value": "Since the two structures were almost identical, only the structure of N2098R is described"}]}
{"molecule": "Gloeobacter rhodopsin (GR) (Gloeobacter violaceus PCC 7421)", "values": [{"measurement": "pKa", "setting": "Asp121", "value": "Approx. 5.9"}]}
{"molecule": "Bacteriorhodopsin (BR) (Halobacterium salinarum)", "values": [{"measurement": "pKa", "setting": "Asp85", "value": "Approx. 2.6"}]}
{"molecule": "Green-absorbing proteorhodopsin (GPR) (uncultured marine gamma proteobacterium EBAC31A08)", "values": [{"measurement": "pKa", "setting": "Asp97", "value": "Approx. 7.9"}]}
{"molecule": "B1", "values": [{"measurement": "pKa", "setting": "Asp74 (position 74, …)", "value": "< 2.0"}]}
